The target in data set [1] is T1, hrPrP23-231 (pEHPrP23-231) (Homo sapiens, UniProt P04156 P04156:23-231). In words: EMSA; 55 nM hrPrP, 10% BCS plus tRNA, urea gel. Conditions: tags: untagged; E. coli BL21(DE3) pLysS; label: 32P internal. (In general: A gel shift assay detects complexes by their altered migration in electrophoresis.)
In a further data set the target is lysozyme (UniProt P00698 P00698:19-147). In words: filter; background; 20 nM protein, 2 nM RNA, 10 ng/ul tRNA. Conditions: label: 32P internal.
For another data set, the target named is BSA (UniProt P02769 P02769:25-607). Described as above. Conditions: tags: Ambion; label: 32P internal.
The next data set concerns the target Tau23 (0N3R) (UniProt P10636-2 P10636-2:1-352). In words: EMSA; 125 ng RNA, 1 ug Tau, protection buffer pH 7.4. Conditions: tags: 6-His; label: 32P internal.
The next data set concerns the target Tau441 (2N4R) (UniProt P10636-8 P10636-8:1-441). In words: EMSA; 125 ng RNA, 1 ug Tau; affinity differs from Tau23. Conditions: tags: no His tag; rPeptide; label: 32P internal.
Data set [2] concerns the target T1, hrPrP23-231 (pEHPrP23-231). In words: EMSA. Conditions: tags: untagged; E. coli BL21(DE3) pLysS; label: 32P internal.
Data set [3] has as its target hrPrP23-144 (N-terminal fragment) (Homo sapiens, UniProt P04156 P04156:23-144). In words: filter; 20 nM protein, Buffer B plus tRNA. Conditions: tags: GST fusion removed by thrombin; label: 32P internal.
The target in data set [4] is hrPrP90-231 (C-terminal fragment) (Homo sapiens, UniProt P04156 P04156:90-231). In words: filter. Conditions: tags: GST fusion removed by thrombin; label: 32P internal.

B1: MNV:AP1 (PrP-Amp) (ssRNA)
RNA: GGGUUCAUAGCCUAUUCGGCUUCGCGCAUGGGAAUUUGAGGGACGAUGGGGAAGUGGGAGCGCGUUUUAAAGGACCUUUUUCCCUCGCGUAGCUAGCUACGCGAGGUGACCCCCCGAAGGGGGGUGCCCC
For B1, in data set [1], the binding result was “binds”.

B2: RQ11+12 (ssRNA)
RNA: GGGGUUUCCAACCGGAAUUUGAGGGAUGCCUAGGCAUCCCCCGUGCGUCCCUUUACGAGGGAUUGUCGACUCUAGUCGACGUCUGGGCGAAAAAUGUACGAGAGGACCUUUUCGGUACAGACGGUACCUGAGGGUAUGCCUAGGCAUCCCCCGCGCCGGUUUCGGACCUCCAGUGCGUGUUACCGCACUGUCGACCC
Regarding B2, the binding result with lysozyme was “no binding”; in the data set with BSA it was “no binding”; with Tau23 (0N3R) it was “binds”; in the data set with Tau441 (2N4R), “binds”; in data set [2], “binds”; in data set [3], “binds”. Besides, the binding result in data set [4] is recorded as “no binding”.
